{"source": "paper PMC7055300", "about": "“Theileria parasites subvert E2F signaling to stimulate leukocyte proliferation” (Scientific Reports, 2020)", "target": "human Retinoblastoma-1 (RB) pocket domain (human) (UniProt P06400)", "sequence (P06400 373-771)": "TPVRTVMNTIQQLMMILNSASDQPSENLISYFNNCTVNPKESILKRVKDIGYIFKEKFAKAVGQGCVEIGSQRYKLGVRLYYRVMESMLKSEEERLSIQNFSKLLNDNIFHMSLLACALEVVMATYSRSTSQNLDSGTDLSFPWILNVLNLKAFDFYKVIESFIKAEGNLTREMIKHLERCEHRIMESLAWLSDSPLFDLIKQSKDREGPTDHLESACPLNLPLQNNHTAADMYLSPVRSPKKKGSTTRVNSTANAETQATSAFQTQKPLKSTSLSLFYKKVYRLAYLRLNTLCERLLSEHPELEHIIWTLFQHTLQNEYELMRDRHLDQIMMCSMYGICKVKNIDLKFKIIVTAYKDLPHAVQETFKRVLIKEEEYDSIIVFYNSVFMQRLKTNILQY", "assay": "SPR", "note": "pKd: −log10 of the molar value."}
{"substance": "full-length, recombinant TpGcpE protein (TpMuguga_02g00667) (natural protein)", "values": [{"measurement": "pKd", "value": 7.73}]}
